Patent publication US20120100141A1 (GlaxoSmithKline, published 2012)

Legend:
Experiment in all cases: melanophore functional bioassay, transfected cells (data not shown)
Human NPY2R = target: T1, Human NPY2R (human, UniProt P49146 1-381)
T1 construct: whole, on cells; also called NPY2R (human)
T1 sequence (looked up): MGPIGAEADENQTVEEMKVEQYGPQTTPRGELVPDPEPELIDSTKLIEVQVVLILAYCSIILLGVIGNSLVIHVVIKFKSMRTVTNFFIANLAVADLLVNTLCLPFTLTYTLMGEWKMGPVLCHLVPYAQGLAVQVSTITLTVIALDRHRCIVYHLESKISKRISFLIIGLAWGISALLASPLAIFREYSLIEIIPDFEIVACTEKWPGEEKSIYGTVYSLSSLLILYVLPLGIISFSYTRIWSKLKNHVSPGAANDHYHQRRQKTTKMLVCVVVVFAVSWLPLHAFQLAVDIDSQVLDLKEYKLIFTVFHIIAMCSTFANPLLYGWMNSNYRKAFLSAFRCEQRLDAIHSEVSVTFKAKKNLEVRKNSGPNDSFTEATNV
Description: (§1) For assaying purposes cells were washed, trypsinized and resuspended in 0.7×EPG PBS at a concentration of 15×10⁶ cells per ml. 800 μl of cells were gently mixed with 20-40 μg of cDNA and incubated on ice for 20 minutes. […] After 2 hours they were placed in a sealed container in the incubator overnight (25° C., 0% CO2). The following day media was aspirated and 25 μl MAB (Melanophore Assay Buffer) containing 1% DMSO and 10 nM melatonin was added to each well. Cells were incubated for one hour and basal transmittance was measured on a SLT Spectra plate reader at 620 nm. Next, a dilution series (12 point series using 3 fold dilution intervals in MAB) containing 25 μl of a 2× concentration peptides and standards were added directly to each well. Standards included melatonin 10 nM, MSH 200 nM and MAB and were used to establish assay system Minimum, Maximum, and basal response levels, respectively. Following addition of peptides and standards, plates were incubated for 1 hour and transmittance measured as before. Data was analyzed using Robosage (version 7.3.2) by calculating (1−Tf/Ti) where Ti is initial baseline read, and Tf is the response read.

Mouse NPY5R = target: T2, Mouse NPY5R (mouse, UniProt O70342 1-466)
T2 construct: whole, on cells; also called NPY5R (mouse)
T2 sequence (looked up): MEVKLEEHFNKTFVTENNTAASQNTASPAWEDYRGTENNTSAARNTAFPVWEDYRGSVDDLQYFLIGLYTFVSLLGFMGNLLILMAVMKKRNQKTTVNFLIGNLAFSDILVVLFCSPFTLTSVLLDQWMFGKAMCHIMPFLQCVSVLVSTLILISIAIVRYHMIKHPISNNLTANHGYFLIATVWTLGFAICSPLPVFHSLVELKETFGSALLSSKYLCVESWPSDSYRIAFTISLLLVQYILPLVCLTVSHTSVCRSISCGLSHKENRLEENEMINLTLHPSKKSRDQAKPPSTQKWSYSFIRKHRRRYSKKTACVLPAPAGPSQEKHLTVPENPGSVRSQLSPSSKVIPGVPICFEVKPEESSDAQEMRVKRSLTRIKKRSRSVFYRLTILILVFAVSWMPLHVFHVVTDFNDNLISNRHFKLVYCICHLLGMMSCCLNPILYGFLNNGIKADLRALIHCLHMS
Description: as §1

Mouse NPY4R = target: T3, Mouse NPY4R (mouse, UniProt Q61041 1-375)
T3 construct: whole, on cells; also called NPY4R (mouse)
Description: as §1

Mouse NPY2R = target: T4, Mouse NPY2R (mouse, UniProt P97295 1-381)
T4 construct: whole, on cells; also called NPY2R (mouse)
T4 sequence (looked up): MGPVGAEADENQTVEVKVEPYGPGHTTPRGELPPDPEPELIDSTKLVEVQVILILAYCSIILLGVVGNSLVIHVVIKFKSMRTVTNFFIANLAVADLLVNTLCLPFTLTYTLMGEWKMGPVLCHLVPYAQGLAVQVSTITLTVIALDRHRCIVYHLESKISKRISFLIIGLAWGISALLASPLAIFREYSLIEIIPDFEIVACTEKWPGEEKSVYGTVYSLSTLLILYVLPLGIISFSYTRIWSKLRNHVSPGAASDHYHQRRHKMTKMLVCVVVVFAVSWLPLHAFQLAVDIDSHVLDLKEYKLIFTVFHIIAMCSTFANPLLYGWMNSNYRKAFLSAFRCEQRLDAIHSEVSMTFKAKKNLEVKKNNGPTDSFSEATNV
Description: as §1

Human NPY4R = target: T5, Human NPY4R (human, UniProt P50391 1-375)
T5 construct: whole, on cells; also called NPY4R (human)
Description: as §1

Human NPY1R = target: T6, Human NPY1R (human, UniProt P25929 1-384)
T6 construct: whole, on cells; also called NPY1R (human)
T6 sequence (looked up): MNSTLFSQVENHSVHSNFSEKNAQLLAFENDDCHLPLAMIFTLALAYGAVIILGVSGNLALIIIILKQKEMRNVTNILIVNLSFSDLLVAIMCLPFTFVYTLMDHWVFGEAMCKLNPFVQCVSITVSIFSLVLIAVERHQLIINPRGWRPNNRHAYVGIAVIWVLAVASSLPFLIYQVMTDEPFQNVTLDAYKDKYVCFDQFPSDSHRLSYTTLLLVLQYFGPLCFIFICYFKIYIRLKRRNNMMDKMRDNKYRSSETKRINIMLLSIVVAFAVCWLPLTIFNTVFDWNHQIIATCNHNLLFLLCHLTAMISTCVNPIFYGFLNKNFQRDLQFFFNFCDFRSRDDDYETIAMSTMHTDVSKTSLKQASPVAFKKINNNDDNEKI
Description: as §1

Mouse NPY1R = target: T7, Mouse NPY1R (mouse, UniProt Q04573 1-382)
T7 construct: whole, on cells; also called NPY1R (mouse)
T7 sequence (looked up): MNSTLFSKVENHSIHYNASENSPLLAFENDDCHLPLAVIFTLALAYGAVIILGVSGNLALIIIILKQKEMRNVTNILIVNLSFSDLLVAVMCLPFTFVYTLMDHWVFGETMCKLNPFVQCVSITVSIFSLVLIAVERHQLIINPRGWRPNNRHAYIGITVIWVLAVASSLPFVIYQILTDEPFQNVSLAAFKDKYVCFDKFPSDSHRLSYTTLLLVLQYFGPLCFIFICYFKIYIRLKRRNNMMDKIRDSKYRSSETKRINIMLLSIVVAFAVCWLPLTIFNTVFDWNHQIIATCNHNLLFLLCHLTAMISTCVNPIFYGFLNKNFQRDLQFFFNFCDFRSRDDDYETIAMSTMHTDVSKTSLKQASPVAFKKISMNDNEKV
Description: as §1

Human NPY5R = target: T8, Human NPY5R (human, UniProt Q15761 1-445)
T8 construct: whole, on cells; also called NPY5R (human)
T8 sequence (looked up): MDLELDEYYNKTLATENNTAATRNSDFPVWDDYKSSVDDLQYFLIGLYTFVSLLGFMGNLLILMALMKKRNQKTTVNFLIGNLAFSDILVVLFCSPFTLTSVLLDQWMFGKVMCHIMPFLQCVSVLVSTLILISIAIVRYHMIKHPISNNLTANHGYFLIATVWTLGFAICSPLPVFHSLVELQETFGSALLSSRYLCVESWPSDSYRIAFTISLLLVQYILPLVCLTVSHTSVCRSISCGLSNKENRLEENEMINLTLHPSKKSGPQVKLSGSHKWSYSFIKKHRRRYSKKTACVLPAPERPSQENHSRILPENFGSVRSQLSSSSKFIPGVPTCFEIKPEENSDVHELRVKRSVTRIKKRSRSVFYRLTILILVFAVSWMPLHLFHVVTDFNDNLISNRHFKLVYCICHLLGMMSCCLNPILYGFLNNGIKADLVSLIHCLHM
Description: as §1

Measured: binding result

T3 sequence (Q61041 whole entry): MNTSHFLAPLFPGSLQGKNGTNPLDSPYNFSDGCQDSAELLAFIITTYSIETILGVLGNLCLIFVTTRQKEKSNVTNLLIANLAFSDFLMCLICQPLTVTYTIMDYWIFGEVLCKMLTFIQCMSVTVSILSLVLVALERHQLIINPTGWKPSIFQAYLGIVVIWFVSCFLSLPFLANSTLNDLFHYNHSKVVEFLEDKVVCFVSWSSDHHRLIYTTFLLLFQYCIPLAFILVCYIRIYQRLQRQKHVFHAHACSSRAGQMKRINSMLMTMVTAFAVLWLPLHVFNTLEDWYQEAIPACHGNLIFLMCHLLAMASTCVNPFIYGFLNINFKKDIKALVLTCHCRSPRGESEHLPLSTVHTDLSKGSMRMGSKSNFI
T5 sequence (P50391 whole entry): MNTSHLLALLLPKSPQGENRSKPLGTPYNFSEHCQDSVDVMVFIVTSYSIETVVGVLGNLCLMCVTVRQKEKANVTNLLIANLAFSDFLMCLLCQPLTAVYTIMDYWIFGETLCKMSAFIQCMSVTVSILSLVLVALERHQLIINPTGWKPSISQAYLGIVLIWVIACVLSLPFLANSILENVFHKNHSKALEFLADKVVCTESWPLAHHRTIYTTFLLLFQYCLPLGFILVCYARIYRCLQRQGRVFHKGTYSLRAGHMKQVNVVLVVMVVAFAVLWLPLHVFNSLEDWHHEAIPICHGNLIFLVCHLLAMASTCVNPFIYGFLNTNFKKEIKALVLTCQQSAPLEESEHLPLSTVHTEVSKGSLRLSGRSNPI

B1: PYY (3-36) DOM7h-14-10 (R108C) AlbudAb peptide conjugate DMS7605 (other)
chain: DIQMTQSPSSLSASVGDRVTITCRASQWIGSQLSWYQQKPGKAPKLLIMWRSSLQSGVPSRFSGSGSGTDFTLTISSLQPEDFATYYCAQGLRHPKTFGQGTKVEIKC
peptide: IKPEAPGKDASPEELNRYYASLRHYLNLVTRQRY
modifications: C-terminal amide; lysine at position 10 derivatised with the 4 repeat PEG linker to the dAb cysteine; free C-terminal cysteine (R108C) coupled through maleimide to a 4 repeat PEG linker that is attached to the lysine at position 10 of the PYY peptide
notes: Chemical conjugate, not a genetic fusion; The dAb was made in E. coli, the peptide and PEG linker by chemical synthesis; also called DMS7167:PYY3-36; PYY(3-36) AlbudAb
binds: all assays above
